B1: CPEB3 Ribozyme (parent)
chain: UAACAGGGGGCCACAGCAGAAGCGUUCACGUCGCAGCCCCUGUCAGAUUCUGGUGAAUCUGCGAAUUCUGCUGUAUAUCUC

Variants of: B1
Assay: self-cleavage, relative activity (ratio to wild type); higher = more cleavage; in vitro, sequencing
Outline: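 Relative activity compares each variant's cleaved/total read fraction with that of the unmutated ribozyme. To get these fractions, barcoded CPEB3 ribozyme libraries from rounds of error-prone PCR were transcribed with T7 RNA polymerase for 5 hours at 37°C and then given 15 min of DNase I treatment before EDTA was added. The RNAs were reverse transcribed with template switching and sequenced on Illumina, and DNA sequencing linked barcodes to variants. A minimum of 5 reads applied, and three batches were averaged.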

Variant	self-cleavage
G22U U41C	0.27
G22U U41A	0.17
A21G G73A	1.21
G22U U60A	0.17
G22U U60C	0.07
A21U G61A	0.34
G22A U67C	0.09
G22A U67A	0.32
G22C G53C	0.07
G22A A28U	0.12
G22A A28G	0.4
G22A A28C	0.21
G22A U54C	0.2
A21G G33A	0.33
A21G G33C	0.14
A21G G33U	0.19
G22A A77U	0.1
C23A G63A	0.09
A21G U80A	0.72
A21G U80C	0.74
A21G U80G	0.76
C23A U31C	0.23
G22A U72C	0.23
A21G U76G	0.66

Variant	self-cleavage
A21G U76A	0.55
A21G U76C	0.63
G22C C62U	0.16
A21U A56G	0.25
A21U A56U	0.2
A21U A56C	0.18
A21U U72G	0.17
A21U U72C	0.53
A21U U72A	0.26
C23A C34U	0.22
G22U U26A	0.26
G22U U26C	0.11
G22A U26C	0.19
G22A U26A	0.38
A21U U74A	0.76
A21U U74C	0.76
A21U U78C	0.25
A21U U78A	0.38
G22U U66G	0.17
G22U U66C	0.52
A21U G24A	0.33
G22U U76A	0.33
G22C U67A	0.16
G22C U67C	0.11

Variant	self-cleavage
A21G U51A	0.64
A21G U51C	0.6
A21G U51G	0.72
G22U U31C	0.11
G22U U31A	0.32
A21G C79U	0.76
C23A U41A	0.35
C23A U41C	0.34
A21G G22A	0.17
A21U A28U	0.23
A21U A28C	0.15
A21U A28G	0.22
A21U C38U	0.29
A21U U69C	0.26
A21G U26A	0.52
A21G U26G	0.25
A21G U26C	0.29
A21G U69G	0.33
A21G U69A	0.27
A21G U69C	0.27
G22A A64U	0.32
G22A A64G	0.24
G22C A35G	0.32
G22C A35U	0.12

Variant	self-cleavage
G22A U31A	0.34
G22U G46A	0.17
C23A G36U	0.25
A21G U60C	0.27
A21G U60G	0.29
A21G U60A	0.32
C23A G24A	0.13
C23A U43A	0.28
C23A U43C	0.23
A21G G61U	0.34
A21G G61A	0.2
G22C A65G	0.32
G22C A75U	0.24
G22C A75G	0.13
G22A U48A	0.07
G22A U48G	0.32
G22A U48C	0.19
G22A U74C	0.5
A21U G30A	0.1
G22C C29U	0.1
A21G G36C	0.24
A21G G36U	0.07
A21U C62U	0.01
A21G G30C	0.15

Variant	self-cleavage
A21G G30U	0.21
A21G G30A	0.32
A21U A65G	0.34
C23A U48C	0.16
A21G G55A	0.42
A21G G55U	0.57
C23A A47U	0.47
C23A A47G	0.41
A21G G70A	0.22
A21G U58G	0.39
A21G U58C	0.31
A21G U58A	0.29
A21G U43G	0.14
A21G U43A	0.75
A21G U43C	0.33
A21U C68U	0.44
A21U C68A	0.32
A21G U67A	0.24
A21G U67C	0.24
A21U G22A	0.29
G22U	0.27
G22A	0.29
G22C	0.26
G22A U60C	0.28

Variant	self-cleavage
G22A U60A	0.08
C23A C62U	0.21
G22C U69C	0.15
A21U G33A	0.09
C23A U54C	0.18
A21U A64G	0.18
A21U A64U	0.13
C23A A57G	0.26
A21U C29U	0.3
A21U C29A	0.21
G22U C71U	0.08
A21U U54C	0.29
A21U U54A	0.29
A21U U54G	0.26
G22C U31A	0.12
G22U A56G	0.2
G22C G42U	0.11
A21U U67A	0.19
A21U U67C	0.2
G22A C38U	0.17
A21U A77G	0.37
A21U C23U	0.24
A21U C23G	0.07
A21U C23A	0.22

Variant	self-cleavage
A21U	0.37
A21G G46U	0.36
A21G G46A	0.42
A21G G46C	0.18
G22A U80C	0.5
G22U A64G	0.36
G22A U25A	0.18
A21U C27G	0.07
A21U C27U	0.14
C23A C38U	0.49
C23A A64G	0.53
G22U U25C	0.2
C23A	0.3
G22A U78C	0.19
A21U C39A	0.31
A21U C39U	0.2
A21U C50A	0.18
A21U C50U	0.4
G22U U43A	0.34
G22U U43C	0.3
G22A U51G	0.17
G22A U51C	0.2
A21G U78A	0.53
A21G U78C	0.58

Variant	self-cleavage
A21U U66A	1.12
A21U U66C	0.33
A21U A35U	0.28
A21U A35G	1.03
C23A A56G	0.2
A21U A75G	0.27
A21U A75U	0.37
G22A C68G	0.11
G22A G63A	0.27
C23A A28G	0.18
C23A A28U	0.14
G22C A57G	0.32
C23A U49A	0.25
A21U C37U	0.18
A21U G63A	0.5
A21U G63U	0.28
A21U G63C	0.28
A21U U41C	0.34
A21U U41A	0.26
A21U C81A	0.45
A21U C81U	0.29
A21U U25C	0.29
A21U U25A	0.22
A21U G53A	0.29

Variant	self-cleavage
G22A A56G	0.17
G22U A35U	0.09
C23A U25C	0.36
C23A U25A	0.27
A21G G42A	0.25
A21G G42U	0.37
A21U U48C	0.27
G22U G61C	0.14
G22U U80C	0.24
A21U U76A	0.45
A21U U76C	0.27
G22A U58C	0.27
G22U C59U	0.16
G22C G55U	0.22
A21U A47U	0.1
A21U A47G	0.38
G22U U67C	0.06
A21U C71G	0.09
A21U C71U	0.16
G22C U25C	0.45
A21G U25A	0.24
A21G U25G	0.34
A21G U25C	0.29
C23A U58A	0.18

Variant	self-cleavage
C23A U58C	0.56
G22A G53A	0.6
A21U U43A	0.5
A21U U43C	0.26
A21U U26C	0.29
A21U U26A	0.35
A21U U58C	0.12
A21U U58A	0.37
G22A A47G	0.48
A21G U72G	0.53
A21G U72C	0.65
A21G U72A	0.44
G22U U72A	0.15
G22U U72C	0.3
C23A A45G	0.23
C23A A45C	0.34
A21G U48C	0.3
A21G U48A	0.35
A21G U48G	0.34
G22C A56U	0.14
G22C A56G	0.21
G22A U49C	0.11
C23A C39U	0.23
G22A U76C	0.25

Variant	self-cleavage
A21U G42C	0.29
A21U U31C	0.3
A21U U31A	0.13
A21U U31G	0.13
G22A C37A	0.09
G22C C37G	0.09
C23A U51C	0.27
C23A U51A	0.37
A21G U31A	0.33
A21G U31C	0.24
A21G U31G	0.41
C23A A65G	0.28
G22A A35U	0.19
G22A A35G	0.68
A21G C81U	0.92
C23A G52U	0.15
G22A A45G	0.14
G22A A45U	0.11
A21G U54C	0.53
A21G U54A	0.71
A21G U54G	0.4
A21U C40U	0.15
G22U A28G	0.17
G22U A28U	0.17

Variant	self-cleavage
A21U C44A	0.11
G22C U80G	0.27
G22C U74G	0.19
G22C U72C	0.2
G22C U41C	0.1
G22C U41A	0.29
A21G G53A	0.58
G22C A64G	0.24
G22C A64U	0.16
C23A C44U	0.08
G22U A45G	0.22
A21U U80C	0.53
A21U U80A	0.44
A21U U51A	0.43
A21U U51C	0.34
C23A C79A	0.26
A21U C32A	0.14
A21G C71U	0.32
A21G C71A	0.07
A21U G70C	0.05
G22C U78A	0.06
G22A G52U	0.38
A21G C68G	0.2
A21G C68U	0.43

Variant	self-cleavage
C23A C81G	0.22
G22A A65G	0.23
G22A A65U	0.08
A21U G52A	0.33
G22A A75U	0.37
A21G G63U	0.61
A21U A45U	0.17
A21U A45G	0.29
A21U A45C	0.1
G22U A75G	0.39
G22U A75C	0.23
G22U A75U	0.26
A21G G52A	0.72
A21G G24U	0.44
A21G G24A	0.24
A21G G24C	0.23
C23A C40G	0.23
A21U U60G	0.17
A21U U60A	0.3
A21U U60C	0.2
G22C G52C	0.2
A21U A57G	0.33
G22A A57G	0.35
G22A U41C	0.37

Variant	self-cleavage
G22A U41A	0.19
G22A U69A	0.24
G22A U69G	0.06
A21G U49C	0.27
A21G U49A	0.48
A21G U49G	0.23
A21G U41C	0.66
A21G U41A	0.3
A21G U41G	0.29
A21G U66A	0.42
A21G U66G	0.44
A21G U66C	1.05
C23A U26A	0.49
A21U G73A	0.88
A21G U74C	0.96
A21G U74A	1.03
A21U U49C	0.22
C23A G73A	0.23
C23A A35U	0.31
C23A A35G	0.27
G22A U43G	0.09
G22A U43A	0.38

— the RNAGym collection of RNA variant scans (doi:10.1093/nar/gkz1192)
